Measured values taken from US20070032637A1.

Biological target: EGFR on A431 cells (human squamous cell carcinoma cells) (human) (UniProt P00533)
Assay: inhibition of the binding of Eu-EGF (10 nM) to A431 cells, time-resolved fluorescence; blocked ligand: Eu-EGF

IC50 (read off the curve): 0.6 µg/mL
Substance: anti-EGFR monoclonal antibody Ab-3 (Oncogene)
